Columns and labels:
c-Abl (mouse) = test: phosphorylation enrichment, bacterial display (enrichment ratio); higher = better substrate or ligand; peptides without Tyr show the background
Fyn = Fyn (UniProt P06241); test: as above
EPHB2 = EPHB2 (UniProt P29323); test: as above
Hck = Hck (UniProt P08631); test: as above
Fes = Fes (UniProt P07332); test: as above
Jak2 = Jak2 (UniProt O60674); test: as above
FGFR1 = FGFR1 (UniProt P11362); test: as above
c-Src = test: as above
MERTK = MERTK (UniProt Q12866); test: as above
EPHB1 = EPHB1 (UniProt P54762); test: as above
EPHB1, sequence (P54762 whole entry, looked up): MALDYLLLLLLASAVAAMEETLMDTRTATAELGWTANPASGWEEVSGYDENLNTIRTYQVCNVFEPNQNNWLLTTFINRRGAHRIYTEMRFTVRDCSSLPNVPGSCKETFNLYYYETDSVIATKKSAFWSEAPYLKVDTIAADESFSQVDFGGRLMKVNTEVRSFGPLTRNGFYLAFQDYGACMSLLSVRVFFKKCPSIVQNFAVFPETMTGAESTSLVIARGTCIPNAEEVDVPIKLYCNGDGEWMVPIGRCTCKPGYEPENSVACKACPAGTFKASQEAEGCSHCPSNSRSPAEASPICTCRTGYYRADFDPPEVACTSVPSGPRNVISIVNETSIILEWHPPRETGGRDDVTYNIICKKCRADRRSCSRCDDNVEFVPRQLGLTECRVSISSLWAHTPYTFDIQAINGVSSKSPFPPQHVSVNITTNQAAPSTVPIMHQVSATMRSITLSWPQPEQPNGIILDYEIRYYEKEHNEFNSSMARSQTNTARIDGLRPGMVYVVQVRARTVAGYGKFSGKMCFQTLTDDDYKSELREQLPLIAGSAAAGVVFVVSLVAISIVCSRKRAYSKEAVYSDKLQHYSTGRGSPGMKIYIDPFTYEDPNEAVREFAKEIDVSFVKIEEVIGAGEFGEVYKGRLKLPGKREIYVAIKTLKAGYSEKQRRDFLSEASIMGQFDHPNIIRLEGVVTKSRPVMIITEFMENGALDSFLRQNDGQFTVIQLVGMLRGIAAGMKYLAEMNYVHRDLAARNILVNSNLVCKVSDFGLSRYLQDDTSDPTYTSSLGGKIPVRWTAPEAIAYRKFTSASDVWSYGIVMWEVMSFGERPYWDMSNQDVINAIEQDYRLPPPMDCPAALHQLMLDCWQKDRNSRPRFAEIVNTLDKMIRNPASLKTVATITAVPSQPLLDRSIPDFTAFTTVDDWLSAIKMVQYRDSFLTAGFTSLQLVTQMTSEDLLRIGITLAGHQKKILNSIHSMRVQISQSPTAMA

Fer (mouse) = test: as above
AncSZ = test: as above
FGFR3 = FGFR3 (UniProt P22607); test: as above
FGFR3, sequence (P22607 whole entry, looked up): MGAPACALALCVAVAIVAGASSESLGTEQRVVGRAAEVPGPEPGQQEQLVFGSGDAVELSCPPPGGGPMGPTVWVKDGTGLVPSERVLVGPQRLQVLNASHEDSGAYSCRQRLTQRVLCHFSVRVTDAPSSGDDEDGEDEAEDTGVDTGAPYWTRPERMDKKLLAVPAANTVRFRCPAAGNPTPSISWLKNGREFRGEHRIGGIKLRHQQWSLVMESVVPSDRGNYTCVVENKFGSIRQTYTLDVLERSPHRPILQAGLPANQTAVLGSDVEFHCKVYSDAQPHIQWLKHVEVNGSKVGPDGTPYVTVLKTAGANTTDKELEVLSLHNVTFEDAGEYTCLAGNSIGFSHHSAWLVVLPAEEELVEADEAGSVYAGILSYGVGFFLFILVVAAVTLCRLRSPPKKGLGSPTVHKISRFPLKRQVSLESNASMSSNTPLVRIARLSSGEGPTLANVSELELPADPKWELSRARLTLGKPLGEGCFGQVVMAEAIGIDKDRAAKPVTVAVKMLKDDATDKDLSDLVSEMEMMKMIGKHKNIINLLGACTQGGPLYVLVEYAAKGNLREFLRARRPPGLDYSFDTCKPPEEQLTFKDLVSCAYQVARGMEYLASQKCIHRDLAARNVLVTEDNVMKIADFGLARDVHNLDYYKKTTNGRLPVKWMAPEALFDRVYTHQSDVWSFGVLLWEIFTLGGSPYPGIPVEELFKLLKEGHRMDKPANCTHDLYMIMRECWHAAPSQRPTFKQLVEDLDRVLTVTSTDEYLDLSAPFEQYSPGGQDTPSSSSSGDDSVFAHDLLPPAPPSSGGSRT

Grb2 SH2 = Grb2 SH2 (UniProt P62993); test: SH2 binding enrichment of the phosphorylated peptide, bacterial display (enrichment ratio); higher = better substrate or ligand; peptides without Tyr show the background
c-Src SH2 = test: as above
SHP2-C SH2 = test: as above
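Wherever SH2 binding enrichment of the phosphorylated peptide, bacterial display is given: peptide library displayed on the E. coli surface as eCPX fusions, selected cells deep-sequenced, score is each peptide's frequency after selection divided by its frequency in the input.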
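Wherever phosphorylation enrichment, bacterial display is given: 11-residue human phosphosite peptides and single-mutation variants displayed on the E. coli surface, counted by deep sequencing, each peptide's frequency after selection divided by its frequency in the unselected input library; frequency after pTyr selection over input frequency; kinase dosed for 20-30% of maximal phosphorylation in three min.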

Jak2, sequence (O60674 whole entry, looked up): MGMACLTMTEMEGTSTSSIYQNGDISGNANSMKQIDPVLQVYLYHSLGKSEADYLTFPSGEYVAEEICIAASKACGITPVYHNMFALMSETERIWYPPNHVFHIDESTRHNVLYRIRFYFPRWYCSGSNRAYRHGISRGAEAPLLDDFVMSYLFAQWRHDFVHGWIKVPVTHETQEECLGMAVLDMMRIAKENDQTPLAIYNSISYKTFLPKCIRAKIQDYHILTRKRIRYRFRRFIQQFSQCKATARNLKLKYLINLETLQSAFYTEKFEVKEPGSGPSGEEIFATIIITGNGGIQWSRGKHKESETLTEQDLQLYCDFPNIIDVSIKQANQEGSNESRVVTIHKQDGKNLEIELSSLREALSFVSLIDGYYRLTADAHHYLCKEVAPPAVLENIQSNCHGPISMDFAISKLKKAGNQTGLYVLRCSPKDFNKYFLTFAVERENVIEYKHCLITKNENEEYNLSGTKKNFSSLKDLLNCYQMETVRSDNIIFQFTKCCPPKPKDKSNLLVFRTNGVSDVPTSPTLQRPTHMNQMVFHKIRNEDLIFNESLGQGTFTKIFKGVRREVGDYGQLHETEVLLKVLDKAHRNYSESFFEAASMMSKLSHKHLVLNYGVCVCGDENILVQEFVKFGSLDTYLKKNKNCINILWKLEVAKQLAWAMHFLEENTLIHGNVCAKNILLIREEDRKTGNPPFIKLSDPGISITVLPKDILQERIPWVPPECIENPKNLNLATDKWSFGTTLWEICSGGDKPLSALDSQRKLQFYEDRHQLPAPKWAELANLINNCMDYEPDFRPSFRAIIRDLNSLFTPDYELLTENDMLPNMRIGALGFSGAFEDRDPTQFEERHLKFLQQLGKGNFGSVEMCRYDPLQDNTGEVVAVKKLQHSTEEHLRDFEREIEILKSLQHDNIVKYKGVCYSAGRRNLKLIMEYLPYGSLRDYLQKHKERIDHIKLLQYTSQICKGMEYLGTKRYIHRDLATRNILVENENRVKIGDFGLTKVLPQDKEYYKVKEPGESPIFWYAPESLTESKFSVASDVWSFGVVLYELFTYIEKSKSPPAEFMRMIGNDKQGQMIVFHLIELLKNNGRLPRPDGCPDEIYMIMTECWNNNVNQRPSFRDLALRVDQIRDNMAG
FGFR1, sequence (P11362 whole entry, looked up): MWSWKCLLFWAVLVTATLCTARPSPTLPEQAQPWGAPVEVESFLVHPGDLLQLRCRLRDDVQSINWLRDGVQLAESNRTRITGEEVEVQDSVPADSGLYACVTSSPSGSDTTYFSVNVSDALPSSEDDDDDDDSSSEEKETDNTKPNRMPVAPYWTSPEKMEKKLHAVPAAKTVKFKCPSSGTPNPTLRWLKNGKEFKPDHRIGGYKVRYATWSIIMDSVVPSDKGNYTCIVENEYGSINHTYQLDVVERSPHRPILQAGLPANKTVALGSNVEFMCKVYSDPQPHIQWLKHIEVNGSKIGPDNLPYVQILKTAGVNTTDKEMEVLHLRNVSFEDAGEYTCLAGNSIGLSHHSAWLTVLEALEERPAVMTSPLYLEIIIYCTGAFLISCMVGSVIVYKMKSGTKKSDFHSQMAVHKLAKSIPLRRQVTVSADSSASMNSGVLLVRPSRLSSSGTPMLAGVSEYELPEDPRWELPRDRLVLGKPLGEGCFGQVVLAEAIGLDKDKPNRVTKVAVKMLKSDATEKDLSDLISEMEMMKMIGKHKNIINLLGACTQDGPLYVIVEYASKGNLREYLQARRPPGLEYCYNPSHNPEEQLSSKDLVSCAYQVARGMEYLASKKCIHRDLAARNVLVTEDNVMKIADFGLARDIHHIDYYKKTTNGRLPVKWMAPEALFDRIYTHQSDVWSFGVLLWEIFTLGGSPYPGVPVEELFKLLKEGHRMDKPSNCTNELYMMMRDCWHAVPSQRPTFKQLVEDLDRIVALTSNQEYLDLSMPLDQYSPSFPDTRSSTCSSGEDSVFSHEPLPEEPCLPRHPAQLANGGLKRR
Fes, sequence (P07332 whole entry, looked up): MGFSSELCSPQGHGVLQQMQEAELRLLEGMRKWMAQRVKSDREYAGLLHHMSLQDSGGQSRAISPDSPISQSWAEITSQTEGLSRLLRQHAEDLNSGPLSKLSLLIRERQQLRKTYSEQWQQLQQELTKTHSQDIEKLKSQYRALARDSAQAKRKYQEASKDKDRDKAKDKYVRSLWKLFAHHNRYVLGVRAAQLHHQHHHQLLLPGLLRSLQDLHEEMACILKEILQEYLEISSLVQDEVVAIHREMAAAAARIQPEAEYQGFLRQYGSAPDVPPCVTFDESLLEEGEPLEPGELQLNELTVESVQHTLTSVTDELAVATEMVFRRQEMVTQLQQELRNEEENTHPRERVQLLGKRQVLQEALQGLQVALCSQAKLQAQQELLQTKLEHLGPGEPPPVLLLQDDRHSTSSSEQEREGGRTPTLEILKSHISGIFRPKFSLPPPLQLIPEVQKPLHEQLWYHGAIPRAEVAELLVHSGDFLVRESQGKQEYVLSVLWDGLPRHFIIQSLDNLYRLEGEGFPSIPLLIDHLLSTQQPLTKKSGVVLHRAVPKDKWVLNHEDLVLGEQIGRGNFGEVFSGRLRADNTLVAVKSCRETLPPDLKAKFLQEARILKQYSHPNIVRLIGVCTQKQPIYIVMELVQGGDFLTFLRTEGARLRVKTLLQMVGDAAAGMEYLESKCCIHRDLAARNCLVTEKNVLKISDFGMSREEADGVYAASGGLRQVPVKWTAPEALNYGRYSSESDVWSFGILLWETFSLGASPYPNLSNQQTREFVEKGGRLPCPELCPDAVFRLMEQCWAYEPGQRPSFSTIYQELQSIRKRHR
Fyn, sequence (P06241 whole entry, looked up): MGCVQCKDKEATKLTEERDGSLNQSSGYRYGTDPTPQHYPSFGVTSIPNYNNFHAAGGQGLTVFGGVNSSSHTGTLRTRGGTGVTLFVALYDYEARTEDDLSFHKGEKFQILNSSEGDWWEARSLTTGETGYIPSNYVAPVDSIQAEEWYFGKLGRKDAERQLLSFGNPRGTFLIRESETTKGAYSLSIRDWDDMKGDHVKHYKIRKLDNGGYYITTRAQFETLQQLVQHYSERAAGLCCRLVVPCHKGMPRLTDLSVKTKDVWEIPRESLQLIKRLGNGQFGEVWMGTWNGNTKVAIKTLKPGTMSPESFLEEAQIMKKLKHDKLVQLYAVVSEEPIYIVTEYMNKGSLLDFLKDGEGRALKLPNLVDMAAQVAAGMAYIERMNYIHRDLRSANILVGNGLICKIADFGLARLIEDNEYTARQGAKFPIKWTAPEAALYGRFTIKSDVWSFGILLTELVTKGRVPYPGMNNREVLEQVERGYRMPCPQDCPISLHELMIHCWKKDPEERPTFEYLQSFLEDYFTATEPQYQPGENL

Row | Sequence | SH2 binding enrichment (Grb2 SH2) | SH2 binding enrichment (c-Src SH2) | SH2 binding enrichment (SHP2-C SH2) | phosphorylation enrichment (c-Abl (mouse)) | phosphorylation enrichment (Fyn) | phosphorylation enrichment (EPHB2) | phosphorylation enrichment (Hck) | phosphorylation enrichment (Fes) | phosphorylation enrichment (Jak2) | phosphorylation enrichment (FGFR1) | phosphorylation enrichment (c-Src) | phosphorylation enrichment (MERTK) | phosphorylation enrichment (EPHB1) | phosphorylation enrichment (Fer (mouse)) | phosphorylation enrichment (AncSZ) | phosphorylation enrichment (FGFR3)
1 | CNPLRYPTIMI [OR6K6_Y160] | 0.822 | 0.458 | 0.829 | 0.737 | 0.524 | 0.758 | 0.5 | 0.962 | 0.871 | 0.584 | 0.464 | 0.482 | 0.49 | 0.419 | 0.946 | 0.84
2 | WGLRSYYETSK [MAGED2_Y448] | 0.809 | 1.03 | 0.775 | 0.661 | 0.4 | 0.549 | 0.448 | 1.12 | 0.972 | 0.508 | 0.298 | 0.298 | 0.754 | 0.464 | 0.958 | 0.733
3 | KNKNRSKNILP [PTPN11_Y279_Y279S] | 0.777 | 0.374 | 0.39 | 0.771 | 0.621 | 0.568 | 0.561 | 0.749 | 0.632 | 0.531 | 0.564 | 0.561 | 0.686 | 0.486 | 0.732 | 0.627

Further lines, with some results ahead:

Row | SH2 binding enrichment (Grb2 SH2) | SH2 binding enrichment (c-Src SH2) | SH2 binding enrichment (SHP2-C SH2) | Sequence | phosphorylation enrichment (c-Abl (mouse)) | phosphorylation enrichment (Fyn) | phosphorylation enrichment (EPHB2) | phosphorylation enrichment (Hck) | phosphorylation enrichment (Fes) | phosphorylation enrichment (Jak2) | phosphorylation enrichment (FGFR1) | phosphorylation enrichment (c-Src) | phosphorylation enrichment (MERTK) | phosphorylation enrichment (EPHB1) | phosphorylation enrichment (Fer (mouse)) | phosphorylation enrichment (AncSZ) | phosphorylation enrichment (FGFR3)
4 | 1.02 | 0.635 | 0.686 | PEFVVYKPQME [CCRL2_Y170] | 1.42 | 0.814 | 0.843 | 0.883 | 1.82 | 1.82 | 0.673 | 0.783 | 0.972 | 1.12 | 0.898 | 1.7 | 1.08
5 | 0.731 | 0.394 | 0.411 | SQSPHYFRSGR [GPATCH8_Y1038] | 0.544 | 0.476 | 0.394 | 0.389 | 0.819 | 0.687 | 0.383 | 0.538 | 0.502 | 0.56 | 0.427 | 0.719 | 0.425
6 | 0.965 | 7.82 | 0.664 | MPPHIYAITDT [MYH9_Y151] | 0.922 | 1.73 | 0.514 | 1.22 | 0.936 | 0.68 | 0.59 | 2.26 | 4.75 | 1.4 | 0.679 | 0.709 | 0.514
7 | 0.608 | 0.32 | 0.669 | EVLKNYNQQKD [GOLGA4_Y1551] | 0.717 | 0.443 | 0.505 | 0.452 | 1.07 | 0.969 | 0.565 | 0.388 | 0.439 | 0.504 | 0.552 | 0.949 | 0.702
8 | 1.05 | 0.637 | 0.888 | KNKNRYKNILP [PTPN11_Y279] | 0.877 | 0.644 | 0.665 | 0.851 | 1.03 | 0.984 | 0.598 | 0.941 | 0.799 | 0.601 | 0.703 | 0.78 | 0.889

— the supplement of paper PMC10065799, “High-throughput profiling of sequence recognition by tyrosine kinases and SH2 domains using bacterial peptide display” (eLife, 2023)
